Results as given in patent publication US20240287527, “VIRAL PROTEIN […] […] AND METHODS OF USE IN DIAGNOSTICS, […] PURPOSES” (AYASS BIOSCIENCE LLC, published 2024).

Legend:
[1] = target: SARS-CoV-2 nucleocapsid protein (SARS-CoV-2, UniProt P0DTC9 P0DTC9:1-419); assay: SPR; details: tags: AcroBiosystems C5227 / RayBiotech 230-01104
ACE2/ACEH = ACE2/ACEH (Homo sapiens, UniProt Q9BYF1 Q9BYF1:18-740); assay: SPR; details: tags: Fc-tag, ACRO Biosystems AC2-H5257; chain copies: 2
[2] = target: SARS-CoV-2 full-length S protein on lentiviral VLP (SARS-CoV-2, UniProt P0DTC2 P0DTC2:14-1273); assay: cell_activity; details: protein: virion, tags: GenTarget VLP001, GFP reporter VLP, chain copies: 3 (inferred)

B1: SB3L (AYA2012004_L) (ssDNA)
DNA: TAGGGAAGAGAAGGACAATGATTTTGGGCGGGTTGAGGTGGGGGAGGAGGAGGTAGTTAGAGTTGACTAGTACATGACCACTTGA
Does B1 bind [1]?
Result: no binding

Does B1 bind (ACE2/ACEH)?
Result: no binding

And the activity ([2]; label: 5'-biotin, two hairpins (predicted))?
Its activity is ~70 % inhibition.

B2: AYA2012004_L-M2 (structured_DNA)
DNA 1: TTTTTTAGGGAAGAGAAGGACAATGATTTTGGGCGGGTTGA
DNA 2: AAAAATAGGGAAGAGAAGGACAATGATTTTGGGCGGGTTGA
Which results are given for B2?
binding result [1]: no binding; binding result (ACE2/ACEH): no binding; activity [2]: ~60 % inhibition

Does TAGGGAAGAGAAGGACAATGATTTTGGGCGGGTTGA (ssDNA) [AYA2012004_L-M1] bind [1]?
Result: no binding

Does TAGGGAAGAGAAGGACAATGATTTTGGGCGGGTTGA (ssDNA) [AYA2012004_L-M1] bind (ACE2/ACEH)?
Result: no binding

And the activity [2]?
The activity was ~50 % inhibition.
